Results from patent US20180021429A1, “ANTICANCER AGENTS OR ANTIMETASTATIC AGENTS USING FSTL1 AND COMBINATION DRUG THEREOF” (PHARMA FOODS INTERNATIONAL CO., LTD., priority 2015, published 2018).
Where a chain is given by its changes, count along the chain named.

B1: #6-55: chicken-mouse chimeric anti-FSTL1 antibody clone; variable regions SEQ ID NO: 783 (light), 785 (heavy) (antibody, V domains shown)
VH: AVTLDESGGGLQTPGGALSLVCKGSGFTFTSVTMQWVRQAPGKGLEWVASVCSGSSTYYAPAVKGRATISRDNGQSTVRLQLSNLRPEDTGTYYCAKIAGRARWSCTSAAYNIDAWGHGTEVIVSS
VL: ASTQPSSVSAIPGETVKITCSGGGNNYGWYQQRSPGSAPVTVIYYNDNRPSNIPSRFSGSTSGSTSTLTITGVQADDEAIYYCGSWDSNTDSGIFGAGTTLTVL
modifications: mouse constant regions
B2: #7-34: chicken-mouse chimeric anti-FSTL1 antibody clone; variable regions SEQ ID NO: 787 (light), 789 (heavy) (antibody, V domains shown)
VH: AVTLDESGGGLQTPGGGLSLVCKASGFTFSSVTMQWVRQAPGKGLEWVASICSGSSTYYGPAVKGRATISRDNGQNTVRLQLNNLRAEDTATYYCAKIVGRGRWSCTSAAYNIDAWGHGTEVIVSS
VL: B1 VL with I11N, R33K, D47N, D76E, I80V, W86Y, D87E, S88G, N89S
modifications: mouse constant regions
B3: #5-43: chicken-mouse chimeric anti-FSTL1 antibody clone; variable regions SEQ ID NO: 779 (light), 781 (heavy) (antibody, V domains shown)
VH: AVTLDESGGGLQTPGGGLSLVCKGSGFTFSSFNMFWVRQAPGKGLEWVAGIGKDGGTGYGAAVDGRATISKDSGQSTLRLQLNNLRAEDTGTYYCAKAAGGCSYDWCGAYTGDIDTWGHGTEVIVSS
VL: ASTQPSSVSANPGEAVKITCSGGSGSYYGWYQQKSPGSAPVTVIYNNNQRPSDIPSRFSGSKSGSTATLTITGVQAEDEAVYFCGGYDSSTGHGGIFGAGTTLTVL
modifications: mouse constant regions
B4: #8-1: chicken-mouse chimeric anti-FSTL1 antibody clone; variable regions SEQ ID NO: 791 (light), 793 (heavy) (antibody, V domains shown)
VH: B3 VH with G17A, G56V, T57P, G58K, S73N, L78M, Y94F, A109I, T111A
VL: B3 VL with T91S
modifications: mouse constant regions

How the values were obtained:
[1] = tested on: induction of mesenchymal stem cells (MSCs) by FSTL1; assay: Inhibitory activity against MSC induction, ALCAM-/PDGFRA-positive cells (Example 4); assay type: cell-based; conditions: mouse bone marrow cells; FSTL1 50 ng/mL; antibody 10 μg/mL; 11 days; vs control antibody
Procedure: It is known that when bone marrow cells are stimulated with FSTL1, mesenchymal stem cells (MSCs) having pluripotency or self-proliferative capacity grow (Cancer Research 73: 6185, 2013). Thus, 2×10^7 cells/well of bone marrow cells collected from the thigh bone of a C57BL/6 mouse were suspended in 3 mL/well of RPMI1640 (GIBCO/Thermo Fisher Scientific Inc., Cat. No. C11875500BT) medium containing 2% fetal bovine serum, supplemented with 50 ng/mL (final concentration) of FSTL1 (R&D Systems, Inc. Cat#1694-FN-050) and 10 μg/mL of the anti-FSTL1 antibody (#5-2, #5-3, #5-8, #5-10, #5-43, #6-55, or #7-34) or its isotype mouse IgG (anti-DNP antibody) as a control antibody “Control”, and cultured under stimulation (6-well plate). 11 days thereafter, the number of cells was counted while the cells were stained with a PE-labeled anti-ALCAM antibody
(eBioscience, Cat. No. 12-1661-82) and a PE-labeled anti-PDGFRA antibody (eBioscience, Cat#12-1401-81) in order to examine the expression of MSC markers, and the contents of ALCAM-positive cells and PDGFR-positive cells were analyzed by flow cytometry using FACScan (Becton, Dickinson and Company, Code. BECTON-DICKINSON-FACSCAN) to calculate the number of each positive cell per culture.
It is known that when bone marrow cells are stimulated with FSTL1, mesenchymal stem cells (MSCs) having pluripotency or self-proliferative capacity grow (Cancer Research 73: 6185, 2013). […] 11 days thereafter, the number of cells was counted while the cells were stained with a PE-labeled anti-ALCAM antibody (eBioscience, Cat. No. 12-1661-82) and a PE-labeled anti-PDGFRA antibody (eBioscience, Cat#12-1401-81) in order to examine the expression of MSC markers, and the contents of ALCAM-positive cells and PDGFR-positive cells were analyzed by flow cytometry using FACScan (Becton, Dickinson and Company, Code. BECTON-DICKINSON-FACSCAN) to calculate the number of each positive cell per culture.

[2] = tested on: mouse melanoma cells (B16-F10) forced to express Snail; assay: In vivo, intratumoral administration, Snail-positive B16-F10 bone metastasis model (Example 17); design: species or system C57BL/6N mice; conditions: intratumoral 200 μg/0.1 mL/tumor on day 7; GFP-positive tumor cells in bone marrow, day 14
From the text: Three antibodies were comparatively analyzed for their antitumor effects and an immunosuppression-mitigating effect using bone metastasis models in which mouse melanoma cells B16-F10 forced to express Snail were subcutaneously and intravenously transplanted in C57BL/6N mice.
1. Experiment Group (n=5) • 1. No treatment • 2. Control IgG (anti-DNP) • 3. Anti-FSTL1 Clone #6-55 • 4. Anti-FSTL1 Clone #7-34 • 5. Anti-FSTL1 Clone #8-1 2. Experimental procedure • Day 0: transplantation of GFP-positive and Snail-positive B16-F10 tumor cells (5×10^5 cells subcutaneously & 1×10^5 cells intravenously) • Day 7: intratumoral administration of the antibody (200 μg/0.1 mL/tumor) • Day 14: various assays (with a focus on flow cytometry analysis) 3. Index for drug efficacy evaluation • Effects on the growth of subcutaneous tumor (calculation of tumor volume by tumor size measurement): measured 7, 11, and 14 days after tumor implantation (FIG. 11C) • Effects on bone metastasis (GFP-positive tumor cells in bone marrow) (FIG. 11A) • Effects on the expansion of mesenchymal stem cells (CD45-negative cells in bone marrow and in the spleen) (FIGS. 11B and 11D) • Effects on the expansion of immunosuppressive Treg cells (CD4-positive and Foxp3-positive cells in bone marrow or the spleen) (FIG. 11D) • Other immunosuppressive properties (FIG. 11D)
In order to evaluate in vivo antibody activity, antitumor effects and immunosuppression-mitigating effects were comparatively analyzed using bone metastasis models in which mouse melanoma cells (B16-F10) forced to express Snail were subcutaneously and intravenously transplanted in C57BL/6N mice. An anti-FSTL1 antibody to be tested was administered into tumor. On day 0, GFP-positive and Snail-positive B16-F10 tumor cells (5×10^5 cells subcutaneously & 1×10^5 cells intravenously) were transplanted. On day 7, the antibody was administered into subcutaneous tumor (200 μg/0.1 mL/tumor). On day 14, various assays were conducted. […]

Molecule | inhibitory activity against the expansion of ALCAM-positive cells and PDGFRA-positive cells by FSTL1 [1] | bone metastasis [2]
B1 | slightly strong tendency of inhibitory activity | bone metastasis was suppressed by only #6-55 and #8-1
B2 | slightly strong tendency of inhibitory activity | no suppressive effect was seen
B3 | slightly strong tendency of inhibitory activity | 
B4 |  | bone metastasis was suppressed by only #6-55 and #8-1
